Assay results taken from US20050182003A1, “Drugs to be used in gene therapy for recessively transmitted genetic disease” (priority 2002, published 2005).

System: mouse
Assay: suppression of immune response by oral tolerance
Assay type: in vivo
Conditions: administered orally to a mouse
Description: As for a method for suppressing antigen-specific immune response, various methods have been already reported. […] Therefore, they tried to suppress the anti-Dsg3 antibody generation in Dsg3^+/+ graft strain by inhibiting the binding of CD40 and CD40L, which are playing an important role to the establishment of immune response. CD40L is a type II cell membrane-penetrating protein, expressed transiently in activated T cells having received antigen stimulation and CD40, its receptor, is expressed in B cells, dendritic cells, monocyte/macrophage, endothelial cells and the like. The CD40-CD40L binding not only plays an important role in cellular immunity by promoting cytokine production and the like, but it is clarified to be quite important for proliferation of B cells, antibody production and the like. Thus, attempts have been made to suppress immune response in autoimmune diseases, organ transplantation and the like by using anti-CD40L monoclonal antibody inhibiting this binding. As mentioned above, in Dsg3^+/+ graft strain, anti-Dsg3 IgG antibody generation, which is detected in serum by ELISA method, is observed approximately two weeks after skin graft, in all mice that underwent skin graft.

B1: Dsg3 protein: Dsg3 protein prepared with the use of E. Coli expression vector, administered orally (protein, UniProt P32926 50-999, looked up)
Desmoglein-3: EWVKFAKPCREGEDNSKRNPIAKITSDYQATQKITYRISGVGIDQPPFGIFVVDKNTGDINITAIVDREETPSFLITCRALNAQGLDVEKPLILTVKILDINDNPPVFSQQIFMGEIEENSASNSLVMILNATDADEPNHLNSKIAFKIVSQEPAGTPMFLLSRNTGEVRTLTNSLDREQASSYRLVVSGADKDGEGLSTQCECNIKVKDVNDNFPMFRDSQYSARIEENILSSELLRFQVTDLDEEYTDNWLAVYFFTSGNEGNWFEIQTDPRTNEGILKVVKALDYEQLQSVKLSIAVKNKAEFHQSVISRYRVQSTPVTIQVINVREGIAFRPASKTFTVQKGISSKKLVDYILGTYQAIDEDTNKAASNVKYVMGRNDGGYLMIDSKTAEIKFVKNMNRDSTFIVNKTITAEVLAIDEYTGKTSTGTVYVRVPDFNDNCPTAVLEKDAVCSSSPSVVVSARTLNNRYTGPYTFALEDQPVKLPAVWSITTLNATSALLRAQEQIPPGVYHISLVLTDSQNNRCEMPRSLTLEVCQCDNRGICGTSYPTTSPGTRYGRPHSGRLGPAAIGLLLLGLLLLLLAPLLLLTCDCGAGSTGGVTGGFIPVPDGSEGTIHQWGIEGAHPEDKEITNICVPPVTANGADFMESSEVCTNTYARGTAVEGTSGMEMTTKLGAATESGGAAGFATGTVSGAASGFGAATGVGICSSGQSGTMRTRHSTGGTNKDYADGAISMNFLDSYFSQKAFACAEEDDGQEANDCLLIYDNEGADATGSPVGSVGCCSFIADDLDDSFLDSLGPKFKKLAEISLGVDGEGKEVQPPSKDSGYGIESCGHPIEVQQTGFVKCQTLSGSQGASALSTSGSVQPAVSIPDPLQHGNYLVTETYSASGSLVQPSTAGFDPLLTQNVIVTERVICPISSVPGNLAGPTQLRGSHTMLCTEDPCSRLI
suppression of immune response by oral tolerance: failed to obtain successful results
